Test results as given in patent publication US20120045395, “MicroRNAs In Idiopathic Pulmonary Fibrosis” (UNIVERSITY OF PITTSBURGH - OF THE COMMONWEALTH SYSTEM OF …, published 2012).

Biological target: SMAD3 (UniProt P84022 P84022:1-425)
Assay: EMSA; 5 mM MgCl2, 200 mM NaCl, pH 7.6, poly(dI-dC), room temperature; band diminished by unlabeled competitor; probe described as upstream of the predicted site …
Conditions: tags: full length, Santa Cruz Biotechnology; label: 5'-Cy5
Procedure: Electrophoretic Mobility Shift Assay (EMSA): Cultured A549 cells at 60-70% confluence were treated with 2 ng/mL recombinant human TGFβ₁ (R&D Systems) for 60 minutes. Nuclear proteins were isolated using a standard rapid micropreparation technique described at Andrews N. C. and Faller D. V. Nucleic acids research (1991); 19:2499). The supernatant was reserved and snap frozen in liquid nitrogen as the nuclear protein fraction. Nuclear extracts and recombinant full length SMAD3 protein (Santa Cruz Biotechnology, Santa Cruz, Calif.) were incubated with 5′-end Cyanine-5 labeled probe and/or non-labeled competitor oligonucleotide for 20 minutes at room temperature in a binding buffer consisting of 20% glycerol, 5 mM MgCl₂, 2.5 mM EDTA, 25 mM DTT, 200 mM NaCl, 50 mM Tris HCl pH 7.6, and 0.25 mg/mL poly(dI-dC). The complementary oligonucleotides (5′-[…]-3′ (SEQ ID NO: 3), 5′-[…]-3′ (SEQ ID NO: 4)) were synthesized by Integrated DNA Technologies (Coralville, Iowa), and consisted of a sequence upstream of the predicted SMAD3/let7d binding site (GGCTGAGTA (SEQ ID NO:5)). […] The protein/DNA complexes were run on a 6% native polyacrylamide gel and visualized on a Typhoon imaging and documentation system using Cyanine-5 dye excitation and fluorescence settings.

SMAD3, sequence (P84022 whole entry, one chain of several): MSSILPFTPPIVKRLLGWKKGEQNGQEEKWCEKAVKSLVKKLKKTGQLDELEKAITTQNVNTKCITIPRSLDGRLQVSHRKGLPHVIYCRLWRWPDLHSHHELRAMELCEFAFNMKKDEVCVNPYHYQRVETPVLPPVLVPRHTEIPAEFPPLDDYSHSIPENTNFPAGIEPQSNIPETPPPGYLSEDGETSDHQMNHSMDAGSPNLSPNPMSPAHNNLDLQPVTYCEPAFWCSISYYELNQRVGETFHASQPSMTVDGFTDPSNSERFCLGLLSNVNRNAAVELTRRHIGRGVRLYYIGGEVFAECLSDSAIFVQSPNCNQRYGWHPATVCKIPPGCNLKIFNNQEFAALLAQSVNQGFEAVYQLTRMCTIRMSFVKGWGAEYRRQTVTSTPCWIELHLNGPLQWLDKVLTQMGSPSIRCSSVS

B1: let-7d promoter EMSA probe (dsDNA)
DNA 1: GATAATTAAATGTTAAAAGTCAGC
DNA 2: GCTGACTTTTAACATTTAATTATC
  binding result: binds
